Assays:
[1] = molecular target: T1, SmCS (Sinorhizobium meliloti choline sulfatase, BetC) (Sinorhizobium meliloti, UniProt O69787); test: product inhibition kinetics; format: biochemical; settings: competitive; range over the pH values tested, single values in Fig. S11; 25 °C
T1 sequence (O69787 1-512): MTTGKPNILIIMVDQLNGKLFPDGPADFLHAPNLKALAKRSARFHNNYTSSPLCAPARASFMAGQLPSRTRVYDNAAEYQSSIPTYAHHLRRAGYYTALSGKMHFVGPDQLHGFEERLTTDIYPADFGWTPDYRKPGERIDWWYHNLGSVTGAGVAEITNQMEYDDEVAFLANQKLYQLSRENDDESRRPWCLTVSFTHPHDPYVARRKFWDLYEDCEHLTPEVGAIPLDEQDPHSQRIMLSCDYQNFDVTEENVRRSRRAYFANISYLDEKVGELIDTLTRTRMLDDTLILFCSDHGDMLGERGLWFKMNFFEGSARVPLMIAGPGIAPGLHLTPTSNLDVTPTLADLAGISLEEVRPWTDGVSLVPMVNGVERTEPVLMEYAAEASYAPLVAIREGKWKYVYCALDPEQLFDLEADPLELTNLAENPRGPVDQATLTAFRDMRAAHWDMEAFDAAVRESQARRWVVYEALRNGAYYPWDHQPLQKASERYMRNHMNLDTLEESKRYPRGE
Excerpt: product inhibition kinetics on SmCS (Sinorhizobium meliloti choline sulfatase, BetC) | The reaction product choline can act as a competitive inhibitor, albeit a relatively weak one

[2] = system: C[N+](C)(C)CCOS(=O)(=O)[O-]; test: purified protein; settings: pH 7.6; 25.0 °C
[3] = system: O=[N+]([O-])c1ccc(OS(=O)(=O)O)cc1; test: purified protein; settings: 100 mM Tris-HCl pH 7.6, 25 °C
purified protein [4] = substrate: O=[N+]([O-])c1ccc(OS(=O)(=O)O)cc1; test: purified protein
purified protein [5] = substrate: COP(=O)(O)Oc1ccc([N+](=O)[O-])cc1; test: purified protein; settings: 100 mM imidazole-HCl pH 6.0, 25 °C
purified protein [6] = substrate: C[N+](C)(C)CCOP(=O)([O-])O; test: purified protein; settings: 100 mM Tris-HCl pH 7.6, 25 °C, no metal added
purified protein [7] = substrate: C[N+](C)(C)CCOS(=O)(=O)[O-]; test: purified protein; settings: 100 mM Tris-HCl pH 7.6, 25 °C
[8] = 100 mM imidazole-HCl pH 6.0, 25 °C
[9] = 100 mM Tris-HCl pH 7.6, 25 °C, made without FGE

C[N+](C)(C)CCO [choline]
KIC [1]: ~ 52–6.3 mM

SmCS (Sinorhizobium meliloti choline sulfatase, BetC) (Sinorhizobium meliloti 1021; DEL501-512)
Km [2]: (1.09 ± 0.01) × 10^-2 M | kcat [2]: 0.021 ± 0.002 s⁻¹ | kcat/Km [2]: 1.93 ± 0.01 M⁻¹ s⁻¹ | Km [3]: (9.0 ± 0.1) × 10^-2 M | kcat [3]: 0.0159 ± 0.0001 s⁻¹ | kcat/Km [3]: 0.178 ± 0.004 M⁻¹ s⁻¹

B1: SmCS (Sinorhizobium meliloti choline sulfatase, BetC) (Sinorhizobium meliloti 1021) (protein)
chain: MTTGKPNILIIMVDQLNGKLFPDGPADFLHAPNLKALAKRSARFHNNYTSSPLCAPARASFMAGQLPSRTRVYDNAAEYQSSIPTYAHHLRRAGYYTALSGKMHFVGPDQLHGFEERLTTDIYPADFGWTPDYRKPGERIDWWYHNLGSVTGAGVAEITNQMEYDDEVAFLANQKLYQLSRENDDESRRPWCLTVSFTHPHDPYVARRKFWDLYEDCEHLTPEVGAIPLDEQDPHSQRIMLSCDYQNFDVTEENVRRSRRAYFANISYLDEKVGELIDTLTRTRMLDDTLILFCSDHGDMLGERGLWFKMNFFEGSARVPLMIAGPGIAPGLHLTPTSNLDVTPTLADLAGISLEEVRPWTDGVSLVPMVNGVERTEPVLMEYAAEASYAPLVAIREGKWKYVYCALDPEQLFDLEADPLELTNLAENPRGPVDQATLTAFRDMRAAHWDMEAFDAAVRESQARRWVVYEALRNGAYYPWDHQPLQKASERYMRNHMNLDTLEESKRYPRGE
Km (purified protein [4]; [8]): (1.9 ± 0.2) × 10^-2 M | kcat (purified protein [4]; [8]): 0.22 ± 0.01 s⁻¹ | kcat/Km (purified protein [4]; [8]): 12 ± 2 M⁻¹ s⁻¹ | kcat (purified protein [5]): > 0.004 s⁻¹ | Km (purified protein [6]): (2.1 ± 0.2) × 10^-3 M | kcat (purified protein [6]): 0.0267 ± 0.0001 s⁻¹ | kcat/Km (purified protein [6]): 13 ± 1 M⁻¹ s⁻¹ | Km (purified protein [7]; no metal added): (5.0 ± 0.6) × 10^-4 M | kcat (purified protein [7]; no metal added): 2.4 ± 0.2 s⁻¹ | kcat/Km (purified protein [7]; no metal added): 4800 ± 500 M⁻¹ s⁻¹

B2: SmCS (Sinorhizobium meliloti choline sulfatase, BetC) (Sinorhizobium meliloti 1021; E386L) (protein)
chain: MTTGKPNILIIMVDQLNGKLFPDGPADFLHAPNLKALAKRSARFHNNYTSSPLCAPARASFMAGQLPSRTRVYDNAAEYQSSIPTYAHHLRRAGYYTALSGKMHFVGPDQLHGFEERLTTDIYPADFGWTPDYRKPGERIDWWYHNLGSVTGAGVAEITNQMEYDDEVAFLANQKLYQLSRENDDESRRPWCLTVSFTHPHDPYVARRKFWDLYEDCEHLTPEVGAIPLDEQDPHSQRIMLSCDYQNFDVTEENVRRSRRAYFANISYLDEKVGELIDTLTRTRMLDDTLILFCSDHGDMLGERGLWFKMNFFEGSARVPLMIAGPGIAPGLHLTPTSNLDVTPTLADLAGISLEEVRPWTDGVSLVPMVNGVERTEPVLMEYAALASYAPLVAIREGKWKYVYCALDPEQLFDLEADPLELTNLAENPRGPVDQATLTAFRDMRAAHWDMEAFDAAVRESQARRWVVYEALRNGAYYPWDHQPLQKASERYMRNHMNLDTLEESKRYPRGE
Km (purified protein [4]; 100 mM Tris-HCl pH 7.6, 25 °C): (5.7 ± 0.4) × 10^-2 M | kcat (purified protein [4]; 100 mM Tris-HCl pH 7.6, 25 °C): 0.76 ± 0.03 s⁻¹ | kcat/Km (purified protein [4]; 100 mM Tris-HCl pH 7.6, 25 °C): 13 ± 1 M⁻¹ s⁻¹ | kcat (purified protein [7]): > 0.012 s⁻¹ | kcat/Km (purified protein [7]): 0.81 ± 0.01 M⁻¹ s⁻¹

B3: SmCS (Sinorhizobium meliloti choline sulfatase, BetC) (Sinorhizobium meliloti 1021; K309L) (protein)
chain: MTTGKPNILIIMVDQLNGKLFPDGPADFLHAPNLKALAKRSARFHNNYTSSPLCAPARASFMAGQLPSRTRVYDNAAEYQSSIPTYAHHLRRAGYYTALSGKMHFVGPDQLHGFEERLTTDIYPADFGWTPDYRKPGERIDWWYHNLGSVTGAGVAEITNQMEYDDEVAFLANQKLYQLSRENDDESRRPWCLTVSFTHPHDPYVARRKFWDLYEDCEHLTPEVGAIPLDEQDPHSQRIMLSCDYQNFDVTEENVRRSRRAYFANISYLDEKVGELIDTLTRTRMLDDTLILFCSDHGDMLGERGLWFLMNFFEGSARVPLMIAGPGIAPGLHLTPTSNLDVTPTLADLAGISLEEVRPWTDGVSLVPMVNGVERTEPVLMEYAAEASYAPLVAIREGKWKYVYCALDPEQLFDLEADPLELTNLAENPRGPVDQATLTAFRDMRAAHWDMEAFDAAVRESQARRWVVYEALRNGAYYPWDHQPLQKASERYMRNHMNLDTLEESKRYPRGE
Km (purified protein [4]; 100 mM Tris-HCl pH 7.6, 25 °C): (8.9 ± 2.7) × 10^-2 M | kcat (purified protein [4]; 100 mM Tris-HCl pH 7.6, 25 °C): 1.6e-05 ± 5e-06 s⁻¹ | kcat/Km (purified protein [4]; 100 mM Tris-HCl pH 7.6, 25 °C): 0.000176 ± 1e-06 M⁻¹ s⁻¹

B4: SmCS (Sinorhizobium meliloti choline sulfatase, BetC) (Sinorhizobium meliloti 1021; H104A) (protein)
chain: MTTGKPNILIIMVDQLNGKLFPDGPADFLHAPNLKALAKRSARFHNNYTSSPLCAPARASFMAGQLPSRTRVYDNAAEYQSSIPTYAHHLRRAGYYTALSGKMAFVGPDQLHGFEERLTTDIYPADFGWTPDYRKPGERIDWWYHNLGSVTGAGVAEITNQMEYDDEVAFLANQKLYQLSRENDDESRRPWCLTVSFTHPHDPYVARRKFWDLYEDCEHLTPEVGAIPLDEQDPHSQRIMLSCDYQNFDVTEENVRRSRRAYFANISYLDEKVGELIDTLTRTRMLDDTLILFCSDHGDMLGERGLWFKMNFFEGSARVPLMIAGPGIAPGLHLTPTSNLDVTPTLADLAGISLEEVRPWTDGVSLVPMVNGVERTEPVLMEYAAEASYAPLVAIREGKWKYVYCALDPEQLFDLEADPLELTNLAENPRGPVDQATLTAFRDMRAAHWDMEAFDAAVRESQARRWVVYEALRNGAYYPWDHQPLQKASERYMRNHMNLDTLEESKRYPRGE
Km (purified protein [7]): (1.33 ± 0.01) × 10^-2 M | kcat (purified protein [7]): 0.0347 ± 0.0001 s⁻¹ | kcat/Km (purified protein [7]): 2.6 ± 0.02 M⁻¹ s⁻¹

B5: SmCS (Sinorhizobium meliloti choline sulfatase, BetC) (Sinorhizobium meliloti 1021; C54S) (protein)
chain: MTTGKPNILIIMVDQLNGKLFPDGPADFLHAPNLKALAKRSARFHNNYTSSPLSAPARASFMAGQLPSRTRVYDNAAEYQSSIPTYAHHLRRAGYYTALSGKMHFVGPDQLHGFEERLTTDIYPADFGWTPDYRKPGERIDWWYHNLGSVTGAGVAEITNQMEYDDEVAFLANQKLYQLSRENDDESRRPWCLTVSFTHPHDPYVARRKFWDLYEDCEHLTPEVGAIPLDEQDPHSQRIMLSCDYQNFDVTEENVRRSRRAYFANISYLDEKVGELIDTLTRTRMLDDTLILFCSDHGDMLGERGLWFKMNFFEGSARVPLMIAGPGIAPGLHLTPTSNLDVTPTLADLAGISLEEVRPWTDGVSLVPMVNGVERTEPVLMEYAAEASYAPLVAIREGKWKYVYCALDPEQLFDLEADPLELTNLAENPRGPVDQATLTAFRDMRAAHWDMEAFDAAVRESQARRWVVYEALRNGAYYPWDHQPLQKASERYMRNHMNLDTLEESKRYPRGE
Km (purified protein [4]; [9]): (3.9 ± 0.2) × 10^-2 M | kcat (purified protein [4]; [9]): 7.3e-05 ± 1e-06 s⁻¹ | kcat/Km (purified protein [4]; [9]): 0.00189 ± 6e-05 M⁻¹ s⁻¹ | Km (purified protein [7]; made without FGE): (9.4 ± 0.1) × 10^-3 M | kcat (purified protein [7]; made without FGE): 0.0112 ± 0.0002 s⁻¹ | kcat/Km (purified protein [7]; made without FGE): 1.19 ± 0.02 M⁻¹ s⁻¹

From PMC5870055, “Structural and Mechanistic Analysis of the Choline Sulfatase from Sinorhizobium melliloti: A Class I Sulfatase Specific for an Alkyl Sulfate Ester” (Journal of Molecular Biology, 2018)
